The record followed here is patent US20240352134A1 (NANJING IMMUNOPHAGE BIOTECH, published 2024).

For assay [1], the target named is T1, human CCR8 (human, UniProt P51685 1-355). In words: cell-based or functional assay.
For assay [2], the target named is T1, human CCR8. In words: FACS on 293F-CCR8 cells. Here is the method: The affinity of anti-CCR8 antibodies was evaluated by FACS. […] Affinity analyses were generally carried out as follows. […] The test antibodies were diluted with PBS/0.5 BSA (1:3 series dilution from 225 μg/mL to 0.00381 μg/mL). The transfected cells along with parent non-transfected cells were distributed into 96-well round-bottom polystyrene plates and incubated with the diluted antibodies on ice for 20-30 minutes. Next, the samples were washed with PBS/0.5 BSA and the cells were centrifuged. The pelleted cell samples were incubated with the second antibody of anti-mouse IgG-FITC-at 1:300 dilution in 100 μL PBS/0.5% BSA on ice for 30 minutes, and then washed with PBS/0.5% BSA, followed by pelleting the cells. The cell pellets were re-suspended in PBS/0.5% BSA for reading, and samples were analyzed using CYTOFLEX (Beckman).

The target in assay [3] is T1, human CCR8. In words: FACS on human CCR8-expressing 293F cells.

By EC50 is commonly meant the midpoint of the concentration-response curve.

T1 sequence (P51685 whole entry): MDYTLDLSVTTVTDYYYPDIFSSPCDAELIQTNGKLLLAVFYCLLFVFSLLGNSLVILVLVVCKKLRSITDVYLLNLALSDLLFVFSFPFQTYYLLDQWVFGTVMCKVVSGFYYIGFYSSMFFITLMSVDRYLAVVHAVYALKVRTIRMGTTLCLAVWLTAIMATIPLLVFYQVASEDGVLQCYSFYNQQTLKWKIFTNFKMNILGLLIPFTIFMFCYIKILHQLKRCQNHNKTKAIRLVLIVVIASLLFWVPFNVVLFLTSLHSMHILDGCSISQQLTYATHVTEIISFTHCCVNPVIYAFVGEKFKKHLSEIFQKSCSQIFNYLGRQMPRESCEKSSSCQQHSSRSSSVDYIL

B1: 101E4 (antibody, V domains shown)
VH: EVQLVESGGGLVQPKGSLKLSCAASGFSFNPYAMNWVRQGPGKGLEWVARIRSKSNNYATYYADSVKDRFTISRDDSENILYLQMNNLKTEDTAMYYCVRDYYGGRSSIGMDYWGHGTSVTVSS
VL: DIVMTQAAPSVPVTPGESVSISCRSSKSLLHSNGNTYLYWFLQRPGQSPQLLIYRMSNLASGVPDRFSGSGSGTAFTLRISRVEAEDVGVYYCLQHLEYPFTFGGGTKLELK
notes: Mouse hybridoma monoclonal antibody (SJL mice); detected with anti-mouse IgG
In the case of B1, the “Tango IC50” value in assay [1] is 0.27 nM. Also, the EC50 in assay [2] worked out at 0.409 nM.

B2: 3F6 (antibody, V domains shown)
VH: EVQFVESGGGLVQPKGSLKLSCAASGFSFNTYAMNWVRQAPGKGLEWVARIRTKSNNYATHYADSVKDRFIVSRDDSENILYLQMNNLKTEDTGMYYCVRGGNGIYGRNAMDNWGQGTSVTVSS
VL: DIVMTQAAPSVPVSPGESVSISCRSSKSLLHSSGNTYLYWFLQRPGQSPQLLIYRMSNLASGVPDRFSGSGSGTAFTLRISRVEAEDVGVYYCMQHLEYPFTFGGGTKLEIK
notes: Mouse hybridoma monoclonal antibody
B2: the “Tango IC50” value in assay [1] came out at 0.51 nM. In assay [2], this molecule displayed a concentration giving a half-maximal response (EC50) of 2.29 nM.

B3: 118H1 (antibody, V domains shown)
VH: EVQLVESGGGLVQPKGSLKLSCAASGFSFNPYAMNWVRQAPGKGLEWIARIRSKSNNYAAYYADSVKDRFTISRDDSENILYLQMKNLITEDTAMYYCVRDYYGTRPSIGMDYWGRGTSVTVSS
VL: DIAMTQAAPSVFVTPGESVSISCRSSQSLLHSNGNTYLYWFLQRPGRSPQLLIYRMSNLASGVPDRFSGSGSGTGFTLRISRVEAEDVGVYYCMQHLEYPFTFGAGTKLELK
notes: Mouse hybridoma monoclonal antibody; also called 1181H1
For the molecule B3, the “Tango IC50” value in assay [1] amounted to 1.43 nM. In assay [2], a half-maximal effect (EC50) was put at 0.466 nM.

B4: 3O20 (antibody, V domains shown)
VH: EVQLVESGGGLVQPKGSLKLSCATSGFSFNAYAMNWVRQAPGKGLEWVGRIRSKSNNYATYYADSVKGRFTISRDDSKTILYLQMNTLKTEDTAIYYCVRGGYHGNSAYFDVWGTGTSVTVSS
VL: DIVMTQAAPSVPVTPGESVSISCRSSKSLLHSNGNTYLYWFLQRPGQSPQLLIYRMSNLASGVPDRFSGSGSGTAFTLRISRVEAEDVGVYYCLQHLEYPFTFGSGTKLEIK
notes: as for B2
On to B4, for which, in assay [1], the “Tango IC50” value turned out to be 0.45 nM. In assay [2], this molecule gave a 50% effective concentration (EC50) of 1.29 nM.

B5: 3F11 (antibody, V domains shown)
VH: EVQLVESGGGLVQPKGSLKLSCAASGFSFNTYAMNWVRQAPGKGLEWVARIRSKSNYYATYYADSVKDRFTISRDDSESMLYLQMNNLKTEDTAMYYCVRGRELGDYYAMDYWGQGTSVTVSS
VL: DIVMTQAAPSVPVTPGESVSISCRSSKSLLHSNGNTYLYWFLQRPGQSPQLLIYRMSNLASGVPNRFSGSGSGTAFTLRISRVEAEDVGVYYCMQHLEYPFTFGSGTKLEIK
notes: as for B2
On to B5, for which the “Tango IC50” value in assay [1] was 0.27 nM. It took 0.957 nM to reach a half-maximal effect in assay [2] (EC50).

B6: 4M13 (antibody, V domains shown)
VH: EVQLVESGGGLVQPKGSLKLSCAASGFSFNTYAMNWVRQAPGKGLEWVARMRSKSNNYATYYADSVKDRFTISRDDSESMLYLQMNNLKTEDTAMYYCVRGKDTSGSYAMDYWGQGTSVSVSS
VL: DIVMTQAAPSVPVTPGESVSISCRSSKSLLHSNGNTYLYWFLQRPGQSPHLLIYRMSNLASGVPDRFSGSGSGTAFTLRISKVETEDVGVYYCMQHLEYPFTFGSGTKLEIK
notes: as for B2
Take B6: in assay [1], the “Tango IC50” value is 0.47 nM. In assay [2], the EC50 came to 0.775 nM.

B7: 103G4 (antibody, V domains shown)
VH: EVQLVESGGGLVRPKGSLKLSCAASGFSFNPYALNWVRQAPGKGLEWVARIRSKSNNYATYYADSVKDRFTISRDDSENILYLQMNNLKTEDTAMYYCVKDYYGTRPSIGMDYWGQGTSVTVSS
VL: DIVMTQAAPSVPVTPGESVSISCRSSRSLLHSNGNTYLYWFLQRPGQSPHLLIYRMSNLASGVPDRFSGSGSGTAFTLRISRVEAEDVGVYYCMQHLEYPFTFGAGTKLELK
notes: as for B2
With B7, the “Tango IC50” value in assay [1] was determined as 0.83 nM. This molecule also showed an EC50 in assay [2] of 20.6 nM.

B8: 4G19 (antibody, V domains shown)
VH: EVQFVESGGGLVQPKGSLKLSCAASGFSFNTYAMNWVRQAPGKGLEWVARIRTKSNNYATHYADSVTDRFIVSRDDSESMTYLQMNNLKTEDTGMYYCVRGGNGIYGRNTMDNWGQGTSVTVSS
VL: DIVMTQTAPSVPVSPGESVSISCRSSKSLLHSSGNTYLYWFLQRPGQSPQLLIYRMSNLASGVPDRFSGSGSGTAFTLRISRVEAEDVGVYYCMQHLEYPFTFGGGTKLEIQ
notes: as for B2
In the case of B8, the “Tango IC50” value in assay [1] was determined as 2.61 nM. This molecule also gave an EC50 in assay [2] of 4.49 nM.

B9: 2L15 (antibody, V domains shown)
VH: EVQLVESGGGLVQPKGSLKLSCAASGFSFNTYAMNWVRQAPGKGLEWVARIRSKSNNYATYYADSVKDRFTISRADSESMLYLQMNNLKTEDTAMYYCVRGKDISVSYAMDYWGQGTSVTVSS
VL: DIVMTQAAPSVPVTPGESVSISCRSSKSLQHSNGNTYLYWFLQRPGQSPQLLIYRMSNLASGVPDRFSGSGSGTAFTLRISRVETEDVGVYYCMQHLEYPFTFGSGTKLEIK
notes: as for B2
On to B9, for which the “Tango IC50” value in assay [1] was 1.23 nM. For the same molecule, the response in assay [2] was half-maximal at 0.826 nM (EC50).

B10: 3F11hz2 (antibody, V domains shown)
VH: EVQLVESGGGLVQPGGSLKLSCAASGFSFNTYAMNWVRQASGKGLEWVGRIRSKSNYYATYYAASVKGRFTISRDDSKNTAYLQMNSLKTEDTAVYYCVRGRELGDYYAMDYWGQGTLVTVSS
VL: DIVMTQSPLSLPVTPGEPASISCRSSKSLLHSNGNTYLDWFLQKPGQSPQLLIYRMSNRASGVPDRFSGSGSGTDFTLKISRVEAEDVGVYYCMQHLEYPFTFGQGTKLEIK
notes: Humanized variant of 3F11
In turn, B10 gave a concentration for a half-maximal effect (EC50) in assay [3] of 98.5 nM.

B11: 3O20hz3 (antibody, V domains shown)
VH: EVQLVESGGGLVQPGGSLKLSCATSGFSFNAYAMHWVRQASGKGLEWVGRIRSKSNNYATAYAASVKGRFTISRDDSKTTLYLQMNSLKTEDTAVYYCVRGGYHGNSAYFDVWGQGTLVTVSS
VL: DIVMTQSPLSLPVTPGEPASISCRSSKSLLHSQGNTYLDWFLQKPGQSPQLLIYRMSNRASGVPDRFSGSGSGTDFTLKISRVEAEDVGVYYCLQHLEYPFTFGQGTKLEIK
notes: Humanized variant of 3O20
In the case of B11, the EC50 in assay [3] worked out at 241 nM. This EC50 is about 2.4-fold higher than that of the molecule before.

B12: 3O20hz1 (antibody, V domains shown)
VH: EVQLVESGGGLVQPGGSLKLSCAASGFSFNAYAMHWVRQASGKGLEWVGRIRSKSNNYATAYAASVKGRFTISRDDSKNTAYLQMNSLKTEDTAVYYCVRGGYHGNSAYFDVWGQGTLVTVSS
VL: DIVMTQSPLSLPVTPGEPASISCRSSKSLLHSNGNTYLDWYLQKPGQSPQLLIYRMSNRASGVPDRFSGSGSGTDFTLKISRVEAEDVGVYYCLQHLEYPFTFGQGTKLEIK
notes: Humanized variant of 3O20
In assay [3], B12 had a concentration for a half-maximal effect (EC50) of 508 nM.

B13: 4D24 (antibody, V domains shown)
VH: EVQLVESGGGLVQPKGSLKLSCAASGFSFNPYAMNWVRQSPGKGLEWVARIRSKSNNYATYYADSVKDRFTISRDDSESMLYLQMNNLKTEDTAMYYCVRQGWVKRYFDVWGTGTTVTVSS
VL: GNVLTQSPAIMSASPGEKVTMTCSASSSGTYMHWYQQKSTTSPKLWIYDTSKLASGVPGRFSGSGSGNSYSLTISSMEAEDIATYYCFQGSGYPLTFGSGTKLEIK
notes: as for B2
Regarding B13, the “Tango IC50” value in assay [1] was 0.67 nM. In assay [2], this molecule showed an EC50 of 0.888 nM.

B14: 172E7 (antibody, V domains shown)
VH: EVQLQQSGPVLVKPGASVKMSCKASGYTFTDNYMNWMKQSHGKTLEWIGVINPYNGVTRYNQKFRDKATLTVDKSSSTAYMDLNSLTSEDSAVYYCSNSLSWGPGTSLTVSS
VL: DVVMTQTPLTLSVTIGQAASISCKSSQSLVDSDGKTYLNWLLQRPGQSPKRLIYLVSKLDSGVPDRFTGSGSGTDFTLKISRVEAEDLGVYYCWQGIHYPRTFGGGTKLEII
notes: as for B2
Take B14: the “Tango IC50” value in assay [1] stood at 2.01 nM. For the same molecule, in assay [2], the concentration for a half-maximal effect (EC50) is 6.99 nM.

B15: 170G6 (antibody, V domains shown)
VH: EVQLQQSGPVLVKPGASVKMSCKASGYTFTDNYMNWVKQSHGKSLEWIGVINPYNGVTRYNQKFRGKATLTADKSSSTAFMDLNSLTSEDSAVYYCSNSLSWGPGTTLTVSS
VL: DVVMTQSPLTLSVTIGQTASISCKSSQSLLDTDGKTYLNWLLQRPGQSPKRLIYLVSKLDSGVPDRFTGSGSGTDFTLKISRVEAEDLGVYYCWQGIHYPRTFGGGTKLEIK
notes: as for B2
Consider B15, for which, in assay [1], the “Tango IC50” value worked out at 0.33 nM. In addition, the response in assay [2] was half-maximal at 0.302 nM (EC50).

B16: 1G17 (antibody, V domains shown)
VH: QVQLQQSGAELVRPGASVTLSCKASGYTFADYEMHWVKQTPVLGLEWIGAIDPETGRTAYNQKFKFKATLTADRSSSTAYMELRSLTSEDSAVYYCTRRAYWGGWGQGTTLTVSS
VL: DVVMTQTPLSLPVSLGDQASISCRSSQSLVHSSGNTYLHWYLQKPGQSPKLLIYKVSNRFSGVPDRFSGSGSGTDFTLKISRVEAEDLGVYFCSQSTHVPYTFGGGTKLEIK
notes: as for B2
Take B16: in assay [1], the “Tango IC50” value worked out at 1.82 nM. In assay [2], this molecule had an EC50 of 2.94 nM.

B17: 2P15 (antibody, V domains shown)
VH: EVQLVESGGGLVQPKGSLKLSCAASGFSFNAYAMNWVRQAPGKGLEWVARMRSKSNYYATYYADSVKDRFTISRDDSESMLYLQMNNLKTEDTAMYYCVRQTYGSKDYAMDYWGQGTSVTVSS
VL: DVVMTQTPLSLPVSLGDQASISCRSSQSLVHSNGNTYFHWYLQKPGQSPKLLIYKVSNRFSGVPDRFSGSGSGTDFTLKISRVEAEDLGVYFCSQSTHVPFTFGSGTKLEIK
notes: as for B2
Regarding B17, in assay [1], the “Tango IC50” value is 1.87 nM. In addition, the EC50 in assay [2] came out at 0.305 nM.

B18: 84B4 (antibody, V domains shown)
VH: EVQLQQSGPVLVKPGASVKMSCKASGFTITDYYFNWVKQSHGKSLEWIGIINPYNGVARYKQKFKGKATLTVDKSSSTVYLEFSGLTSEDSAVYYCVRFVYGTTYDYAMDYWGQGTSVTVSS
VL: DVLMTQTPLSLPVSLGDQASISCRSSQSIVHSNGNTYLEWYVQKPGQSPKLLIYKVSNRFSGVPDRFSGSGSGTDFTLKISRVEAEDLGVYYCFQGSHVPPTFGGGTKLEIK
notes: as for B2
On to B18, for which the “Tango IC50” value in assay [1] was determined as 1.86 nM. This molecule also came in with a concentration for a half-maximal effect (EC50) in assay [2] of 0.195 nM.

B19: 3C11 (antibody, V domains shown)
VH: EFQLQQSGPELVKPGASVKISCKTSGYSFTDYNINWVKQSNGKSLEWIGLINPNHGTTKSNQKFKGKATLTVDQSSSTAYMQLSSLTSEDSAVYYCARHDYDGAYWGQGTLVTVSA
VL: DVVMTQTPLSLPVSLGDQASISCRSSQSLIHSNGNTYLHWYLQKPGQSPKLLIYKISNRFSGVPDRFSGSGSGTDFTLKISRVEAEDLGVYFCSQSTRAPWTFGGGTKLEIK
notes: as for B2
Take B19: the “Tango IC50” value in assay [1] amounted to 4.08 nM. This molecule showed an EC50 in assay [2] of 4.25 nM.
